Our source for the binding result and Kd values is paper PMC6468292.

As usually defined, the Kd is the equilibrium constant for the complex coming apart. The low end stands for a tighter complex, the high end for a looser complex.

The target of series [1] is T1, FOXC2-DBD (human, UniProt Q99958 72-171).
T1 sequence: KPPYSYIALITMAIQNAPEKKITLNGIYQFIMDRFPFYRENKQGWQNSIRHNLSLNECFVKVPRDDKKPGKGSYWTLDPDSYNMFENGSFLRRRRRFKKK
As to the kind of experiment: EMSA. A general note: In EMSA bound probe runs differently from free probe, usually more slowly.

The next series has as its target T2, FOXA2-DBD (human, UniProt Q9Y261-2 163-264).
T2 sequence: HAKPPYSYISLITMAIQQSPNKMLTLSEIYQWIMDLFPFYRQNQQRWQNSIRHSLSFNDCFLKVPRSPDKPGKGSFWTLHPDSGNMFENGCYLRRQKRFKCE
As to the kind of experiment: ITC.

The next series concerns the target T3, FOXM1-DBD (human, UniProt Q08050 222-360).
T3 sequence: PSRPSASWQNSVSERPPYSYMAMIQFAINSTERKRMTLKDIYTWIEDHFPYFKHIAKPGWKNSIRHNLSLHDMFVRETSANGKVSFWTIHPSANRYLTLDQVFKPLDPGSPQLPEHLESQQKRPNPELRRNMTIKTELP
As to the kind of experiment: ITC.

Series [2] concerns the target T1, FOXC2-DBD. Nature of the series: crystal structure.
The target in series [3] is T1, FOXC2-DBD. Nature of the series: ITC.

B1: DNA3 (GTACACA, palindromic) (dsDNA)
DNA 1: ATTTGTGTACACAAAT
DNA 2: ATTTGTGTACACAAAT
As for B1, the binding result with FOXC2-DBD [1] is listed as “binds”.

B2: ACAAATA site (DNA4, ITC) (dsDNA)
DNA 1: TGCAAAATACAAATAAGACT
DNA 2: AGTCTTATTTGTATTTTGCA
As to B2, the Kd with FOXA2-DBD came out at 7540 nM; in the series with FOXM1-DBD, 2070 nM.

B3: DBE2 (GTAAACA) (dsDNA)
DNA 1: CAAAATGTAAACAAGA
DNA 2: TCTTGTTTACATTTTG
As for B3, the binding result with FOXC2-DBD [2] is “binds”.

B4: GTACACA site (ITC) (dsDNA)
DNA 1: TGCAAAATGTACACAAGACT
DNA 2: AGTCTTGTGTACATTTTGCA
B4: the Kd in the series with FOXA2-DBD is 990 nM; with FOXM1-DBD, 8300 nM; with FOXC2-DBD [3], 2220 nM.
